In patent US20130109846A1 (published 2013):
Where a chain is given by its changes, count along the chain named.

B1: 1h-100 (other)
VH: EVQLLESGGGLVQPGGSLRLSCAASGFTFESYWMSWVRQAPGKGLEWVSTIADTGGLTYYADSVKGRFTISRDNSKNTLYLQMNSLRAEDTAVYYCAKVAYVLDDQPAFDYWGQGTLVTVSS
B2: 1h-33 (other)
VL: DIQMTQSPSSLSASVGDRVTITCRASSNIHNRLNWYQQKPGKAPKLLIYAASSLQSGVPSRFSGSGSGTDFTLTISSLQPEDFATYYCRQWIQPPWTFGQGTKVEIKR
B3: 1h-35-5 (other)
VL: DIQMTQSPSSLSASVGDRVTITCRASQYIGSAISWYQQKPGRAPKLLIYRASYLQSGVPSRFSGSGSGTDFTLTISSLQPEDFATYYCQQLAIRPFTFGQGTKVGIKR
B4: 1h-99-220 (other)
VH: EVQLLESGGGLVQPGGSLRLSCAASGFTFYRSNMSWVRQAPGKGLEWVSWIEDTGTQTFYADSVKGRFTISRDNSKNTLYLQMNSLRAEDTAVYYCAKSPFGPLYGFDYRGQGTLVTVSS
B5: 1h-99-228 (other)
VH: B4 VH with Y30H, S32A, F107S
B6: 1h-99-262 (other)
VH: B4 VH with R31K, S32A, D53A, T54P, T56V, K65R, K98R
B7: 1h-99-254 (other)
VH: B4 VH with Y30D, R31S, S32A, V37A, D53S, T54S, T56G
B8: 1h-99-249 (other)
VH: B4 VH with Y30D, R31S, S32A, T54I, T56V
B9: 1h-99-270 (other)
VH: B4 VH with R31K, S32A, V37A, D53A, T54S, T56V
B10: 1h-99-224 (other)
VH: B4 VH with Y30S, R31H, S32N
B11: 1h-99-243 (other)
VH: B4 VH with Y30D, R31S, S32A, V37G, D53A, T54S, T56V
B12: 1h-99-227 (other)
VH: B4 VH with Y30N, R31H, S32A, S75Y
B13: 1h-99-241 (other)
VH: B4 VH with Y30D, R31S, S32A, D53N, T54N, T56P, N74D
B14: 1h-99-260 (other)
VH: B4 VH with Y30D, R31S, S32A, V37A, D53A, T54N, T56P
B15: 1h-99-277 (other)
VH: B4 VH with Y30D, R31S, S32A, V37A, D53A, T54V, T56V
B16: 1h-99-250 (other)
VH: B4 VH with Y30D, R31S, S32A, V37A, D53A, T56G
B17: 1h-99-297 (other)
VH: B4 VH with Y30D, R31S, S32A, V37A, D53A, T54I, T56V
B18: 1h-99-276 (other)
VH: B4 VH with Y30N, S32A, V37A
B19: 1h-99-264 (other)
VH: B4 VH with Y30D, R31K, D53A, T54P, T56V, K65R, K98R
B20: 1h-99-263 (other)
VH: B4 VH with R31K, S32A, D53A, T54S, T56V
B21: 1h-99-268 (other)
VH: B4 VH with Y30K, R31S, S32A, D53A, T54P, T56V, K65R, K98R
B22: 1h-99-225 (other)
VH: B4 VH with Y30R, R31L, S32Q
B23: 1h-99-266 (other)
VH: B4 VH with D53A, T54P, T56V, K65R, K98R
B24: 1h-99-278 (other)
VH: B4 VH with Y30P, R31H, V37A
B25: 1h-99-267 (other)
VH: B4 VH with D53A, T54S, T56V
B26: 1h-99-246 (other)
VH: B4 VH with Y30D, R31S, S32A, V37A, D53A, T54S, T56G
B27: 1h-99-226 (other)
VH: B4 VH with Y30K, R31S, S32A
B28: 1h-99-222 (other)
VH: B4 VH with Y30Q
B29: 1h-99-256 (other)
VH: B4 VH with Y30D, R31S, S32A, D53A, T54I, T56V
B30: 1h-99-269 (other)
VH: B4 VH with Y30K, R31S, S32A, D53A, T54S, T56V
B31: 1h-99-230 (other)
VH: B4 VH with Y30D, R31S, S32A, D53S, T54I, T56V
B32: 1h-99-236 (other)
VH: B4 VH with Y30D, R31S, S32A, D53A, T54P, T56K, Q112R
B33: 1h-99-229 (other)
VH: B4 VH with Y30A, S32T, V37A
B34: 1h-99-245 (other)
VH: B4 VH with Y30D, R31S, S32A, V37A, D53A, T54S, T56F
B35: 1h-99-221 (other)
VH: B4 VH with Y30A
B36: 1h-99-275 (other)
VH: B4 VH with Y30K, R31D, S32K, V37A, K98R
B37: 1h-34 (other)
VL: DIQMTQSPSSLSASVGDRVTITCRASQYIGTSLAWYQQKPGKAPKLLIYHSSGLQSGVPLRFSGSGSGTDFTLTISSLQPEDFATYYCQQTALRPFTFGQGTKVEIKR
B38: 1h-35-2 (other)
VL: B3 VL with I33L, S34G, R42K, Y53H, G105E
B39: 1h-35 (other)
VL: B3 VL with I33L, R42K, Y53N, G105E

Target: human CD28 (human, UniProt P10747 19-220)
Assay: cell-based or functional assay

Binder | Luciferase assay (EC50) [nM] | MLR assay (EC50) [nM]
B1 | > 7000 | 
B2 | 1600 | 
B3 | 261 | 248
B4 | 10 | 12
B5 | 12 | 46
B6 | 6 | 8
B7 | 11 | 7
B8 | 6 | 11
B9 | 4 | 6
B10 | 15 | 28
B11 | 4 | 8
B12 | 18 | 33
B13 | 17 | 22
B14 | 11 | 13
B15 | 6 | 9
B16 | 9 | 8
B17 | 6 | 6
B18 | 5 | 18
B19 | 5 | 3
B20 | 6 | 4

Binder | Luciferase assay (EC50) [nM] | MLR assay (EC50) [nM]
B21 | 11 | 13
B22 | 14 | 28
B23 | 8 | 4
B24 | 12 | 13
B25 | 6 | 4
B26 | 3 | 8
B27 | 10 | 23
B28 | 16 | 28
B29 | 9 | 7
B30 | 10 | 5
B31 | 9 | 14
B32 | 21 | 14
B33 | 15 | 24
B34 | 6 | 11
B35 | 12 | 17
B36 | 6 | 10
B37 | 2900 | 
B38 | 279 | 197
B39 | 1900 | 2000
